Source: patent publication US8029979B2, “Method for determining the substrate specificity of an enzyme” (JPT Peptide Technologies GmbH, priority 2001, dated 2011)
BA1 = not defined here

Legend:
[1] = target: T1, protein kinase A (Bos taurus, UniProt P00517); assay: Incubation of various modified surfaces (glass, cellulose, polypropylene) with protein kinase A (FIG. 2, Example 30); type: biochemical; conditions: protein kinase A 2 U/mL, 30 minutes at 25° C.
T1 construct: purchased Sigma P26452 as printed
Experimental: FIG. 2. The peptide Leu-Arg-Arg-Ala-Ser-Leu-Gly-NH2 and the control peptide […], each modified at the N-terminus with the dipeptide cysteinyl-β-alanine, were coupled to a maleinimido-functionalised surface by a Michael addition (Example 1; maleinimidobutyryl-β-alanine-functionalised cellulose as well as maleinimidobutyryl-β-alanine-functionalised, modified polypropylene membranes). The surfaces thus modified were first pre-incubated for 10 minutes using 10 mL of 100 μM ATP solution in 50 mM of sodium phosphate buffer pH 7.5. […] (Example 30). The phosphorylation of the corresponding peptides was detected using a FUJIFILM PhosphorImager. The signal intensity of the respective spot is given below the figures. […] In the case of the modified glass surfaces, however, the signal for the substrate amino acid sequence is a factor of 4-5 larger than the signal for the corresponding control amino acid sequence. […]
After drying the glass surface the quantity of radioactive phosphate incorporated in the glass-surface-bound peptides was determined using a PhosphorImager system (FLA-3000, FUJIFILM) (see FIG. 2).

[2] = target: T1, protein kinase A; assay: Time-dependent incubation of various modified surfaces with protein kinase A (FIG. 3, Example 31); type: biochemical; conditions: protein kinase A 2 U/mL, incubated for the given time at 25° C.
Experimental: FIG. 3. The peptide Leu-Arg-Arg-Ala-Ser-Leu-Gly-NH2, modified at the N-terminus with the dipeptide cysteinyl-β-alanine, was coupled to maleinimido-functionalised surfaces by a Michael addition (maleinimido-functionalised glass surface, Sigma, Silane-Prep™, S4651; as well as maleinimidobutyryl-β-alanine-functionalised, modified polypropylene membranes). The modified glass surfaces were first pre-incubated for 10 minutes using 20 mL of 100 μM ATP solution in 50 mM of sodium phosphate buffer pH 7.5. […] (Example 31). The phosphorylation of the corresponding peptides was detected using a FUJIFILM PhosphorImager. The signal intensity of the respective spot is given below the figures. […] FIG. 4. […] After incubation for 30 min at 25° C. the phosphorylation of the corresponding peptides was detected using a FUJIFILM PhosphorImager. […] After incubation for 30 min at 25° C. the phosphorylation of the corresponding peptides was detected using a FUJIFILM PhosphorImager. […]
After drying the glass surface the quantity of radioactive phosphate incorporated in the glass-surface-bound peptides was determined using a PhosphorImager system (FLA-3000, FUJIFILM) (see FIG. 3).

## Cys-BA1-Leu-Arg-Arg-Ala-Ser-Leu-Gly-NH2 ({Cys-BA1}-LRRASLG-NH2; reading uncertain; also: printed as Cys-BA1-Leu-Arg-Arg-Ala-Ser-Leu-Gly-NH2) [compound 85]
[1]; modified cellulose or polypropylene surfaces
  kinase-mediated phosphorylation signal on porous surfaces: only non-specific binding of ATP or kinase to the peptides is measured
[1]; modified glass surfaces
  signal for the substrate amino acid sequence larger than the signal for the corresponding control amino acid sequence: 4-5 factor
[2]; modified glass surfaces
  kinase-mediated incorporation of radioactivity into the substrate amino acid sequence: clear time dependence
[2]; modified polypropylene surfaces
  kinase-mediated phosphorylation signal on polypropylene: only non-specific binding of ATP or kinase to the peptides is measured
